From patent publication US20220204592A1 (VISTERRA, published 2022)
Numbering of substitutions follows the chain as printed. Like-named read-outs stand apart in the source and are kept apart here.

Tests used:
[1] = target: T1, H1 hemagglutinin (A/Solomon Islands/3/2006) (influenza A virus A/Solomon …); experiment: ELISA on coated HA, relative Kd (4-parameter fit)
[2] = target: H3 hemagglutinin of H3N2 strain X-31 (influenza A virus X-31 (H3N2), UniProt P03437 17-566); experiment: cell-based or functional assay
[3] = target: T2, H1 hemagglutinin (A/Solomon Islands/20/1999) (influenza A virus A/Solomon …); experiment: ELISA on coated HA
T2 construct: ELISA antigen

[4] = target: H1 hemagglutinin of H1N1 Solomon Islands (isolate not specified); experiment: cell-based or functional assay
[5] = target: H3 hemagglutinin (A/Fujian/411/2003) (influenza A virus A/Fujian/411/2003 …); experiment: cell-based or functional assay
[6] = target: H1 hemagglutinin (A/California/04/2009) (influenza A virus A/California/04/2009 …); experiment: cell-based or functional assay
[7] = target: H3 hemagglutinin (A/Shangdong/09/93) (influenza A virus A/Shangdong/09/93 …); experiment: cell-based or functional assay
[8] = target: H5 hemagglutinin (A/Duck/MN/1525/81) (influenza A virus A/Duck/MN/1525/81 …); experiment: cell-based or functional assay
[9] = target: T1, H1 hemagglutinin (A/Solomon …); experiment: ELISA on coated HA, relative Kd (4-parameter fit); remark: listed apart in the source

B1: Ab A18 (antibody, V domains shown)
VH: EVQLLESGGGLVKPGQSLKLSCAASGFTFTSYGMHWVRQPPGKGLEWVAVISYDGSYKYYADSVQGRFTISRDNSKNTLYLQMNSLRAEDTAVYYCAKDSRLRSLLYFEWLSQGYFNPWGAGTTLTVSS
VL: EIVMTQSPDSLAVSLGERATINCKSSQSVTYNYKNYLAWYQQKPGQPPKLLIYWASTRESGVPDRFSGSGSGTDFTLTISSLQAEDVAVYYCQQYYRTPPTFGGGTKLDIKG
B1 was tested, and the Kd [1] was 0.144 nM and the “IC50 (RT-PCR, neutralisation)” value [2] was 0.4 µg/mL.

B2: Ab 044 (antibody, V domains shown)
VH: B1 VH with E1Q, S7T, G33A, I51V, S56N, A121Q
VL: DIQMTQSPSSLSASVGDRVTITCRSSQSITFDYKNYLAWYQQKPGKAPKLLIYWGSYLESGVPSRFSGSGSGTDFTLTISSLQPEDFATYYCQQHYRTPPSFGQGTKVEIK
B2 was tested, and the Kd [3] was less than 0.5 nM, the “EC50, Neutral Red (CPE inhibition)” value [4] was 1.2 µg/mL and the “EC50, Neutral Red (CPE inhibition)” value [5] was 0.3 µg/mL. For the same binder, the “EC50, Neutral Red (CPE inhibition)” value [6] was 5.1 µg/mL, the “EC50, Neutral Red (CPE inhibition)” value [7] was 0.6 µg/mL and the “EC50, Neutral Red (CPE inhibition)” value [8] was 1.5 µg/mL.

B3: Ab 032 (antibody, V domains shown)
VH: B1 VH with E1Q, S7T, G33A, I51V, S56N, A121Q
VL: B2 VL with D32N
B3 was tested, and the Kd [9] was less than 0.025 nM.
